± gives the uncertainty stated by the source.
Experiment: amyloid nucleation score (Sup35N fusion, yeast selection) (log enrichment); library NNK3; higher = more nucleation; inactive = no reads after selection
Summary of the method: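 In psi-negative yeast, Sup35N fusions carrying peptides of 20 random codons were induced with 100 μM copper sulfate for 24 hours. The cells then grew 7 days at 30°C on medium lacking adenine and uracil, and plasmid inserts from input and output were Illumina-sequenced, excluding sequences with under 100 input reads. Nucleation score is the DiMSum log enrichment of output over input reads, centred on the mode score of non-aggregating sequences.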

Row | Substance | amyloid nucleation score
1 | LLLRCANHFCYMDATDIYFR | inactive
2 | GTIRDSGSHYKVISF | inactive
3 | YSLFGWVSMFGC | inactive
4 | SQVDIMGKPADAFVPWFDGS | inactive
5 | FKVLSFKSENSSYYVPFGLD | inactive
6 | IYDRMGGHL | inactive
7 | IGGDSRHI | inactive
8 | FYQNLFRILMHNVHAVCPCY | inactive
9 | GLLSPRTGCD | inactive
10 | DFARGYGDNALVFYLYGLMY | -0.684 ± 0.8
11 | LYAFICTTYTCVVN | inactive
12 | GHVSHYVVVLHLTSIGSCGL | 0.696 ± 0.23
13 | NKWYSNLQNCCCSLNHTGEG | 0.624 ± 0.23
14 | SHPASVFGGKRMGCCSRPKG | -0.304 ± 1.1
15 | MCGCARLFVSLSATAKTNP | -0.003 ± 1.1
16 | TRVDLLYRSRNDGIVFFSRF | 0.773 ± 0.2
17 | CSLIQSVRSTA | inactive
18 | IVVVFNPFGDELTYWVTQSM | inactive
19 | RLVAVVRCYVLCGKIWGKST | -0.484 ± 0.89
20 | RYFAMGFRNSCYL | 2.02 ± 0.065
21 | DISHKLNTTIVMYFREALRG | inactive
22 | AVLGLMLPCFRARRAWIAPP | -0.22 ± 1.5
23 | ANAVLKIFTSVMGSVNS | inactive

Row | Substance | amyloid nucleation score
24 | IKFVIIRITHSREKFSVPLS | inactive
25 | RDFAR | inactive
26 | CLFREA | inactive
27 | VSRRFVIM | 0.45 ± 0.17
28 | YSCFFIPWRVGAYRTDNFRS | inactive
29 | QNCQVLKFRAILFNYLLFLT | inactive
30 | YGGFLKFSRYGIGRYIHLQL | inactive
31 | EAPRFCSRAMDYVILQGWTL | inactive
32 | LKMMSLLTSEATSMHHGVNW | inactive
33 | ISSNLLHAVWYSHEPGW | 1.81 ± 0.061
34 | FHRTEGCECVASLKVARGVV | 0.223 ± 0.31
35 | SCSSTDDWPGISSG | inactive
36 | AFTRQIIWRDGGERPPWMRV | inactive
37 | ICLILARINPSIRDLLG | 0.298 ± 0.74
38 | PVSNRLSCDSAFTFPYNMIF | 0.883 ± 0.16
39 | LNPLMFKMRFLMEYNLAWGV | 0.891 ± 0.28
40 | PTRFMTMKETKPVCWWLGNR | -0.114 ± 1.1
41 | RPMRACRGMEVRGFSSEVSA | inactive
42 | GGLCLLAVLWKFLMSALVIR | inactive
43 | ELIMCCHEYSVLAMRLLA | inactive
44 | ILSILMCLQETNTDYNSMNR | inactive
45 | KERIQCYMRLPRFIN | inactive
46 | QLYVTPYLRDVWYDQASSYE | inactive

Row | Substance | amyloid nucleation score
47 | FVPCVWLGSGNCLCTDTMLW | 1.63 ± 0.11
48 | MTPFIKNS | inactive
49 | HPRELYTFKKSWFLGRDS | inactive
50 | ERVLRVNHYWICSFPFNPGV | inactive
51 | LRLMAGNGSSKVGPIKMPWY | inactive
52 | LWKFSILAYRRFILFKLQMN | inactive
53 | TCQILRYIRSLLRMLIWCYY | -0.418 ± 0.8
54 | HCDCTFYSSLGFIGGTWDSC | inactive
55 | SILWSPIDEGLIIVSSVTFL | inactive
56 | RCWLKRAWVWSQKVSDRSTW | inactive
57 | RSVKVYLRCSLSNCVILLGT | 2.58 ± 0.049
58 | GCLECL | inactive
59 | IEAVCNSWRIYGM | inactive
60 | SNFVVSNPISSRGTMNIRII | inactive
61 | FNSYHTANRYI | inactive
62 | FRSWPS | inactive
63 | YIFQICRFGIYYVRSVYTTY | inactive
64 | CDVVSSDMVFDLS | inactive
65 | VSDRVSLSVGG | inactive
66 | KINKREWRRFTVYSVFSHVS | 0.435 ± 0.35
67 | VWGYSMYVLQIWERYSSNV | 1.01 ± 0.13
68 | VIRLLVIAFRDHLNEVMFHK | inactive
69 | LMWTGF | inactive

Row | Substance | amyloid nucleation score
70 | QMLLDRRGKSTAATRVAPTD | inactive
71 | TASCEYFELQPIKNLH | inactive
72 | CVTSVAWANKICARQLFGAD | 0.204 ± 0.37
73 | LATRWRCCSCNAWS | -0.593 ± 1.1
74 | YVLRLASCSFTPVSEVHLSW | inactive
75 | LRASTPYHPMLFELGKLALI | inactive
76 | YSVMSNHETIYYMSVS | inactive
77 | TSDQSESISLFRYI | inactive
78 | ARAYRDQGWPEKEIAQHK | inactive
79 | FKQMDTLTHISFSKAIMPSF | inactive
80 | WIGMYSGETAFLSLPVTQQI | inactive
81 | ARMVVVLKRFCGVCMMSLFL | inactive
82 | ECIGRKRELDLWSAARYAYS | inactive
83 | TEGAYRSW | inactive
84 | VHDRSLHLVGY | -0.841 ± 1.2
85 | VYECFSSWTWSWVCQCQAVF | inactive
86 | MSQCFVCRFAFLIN | 1.57 ± 0.067
87 | KTDIPGNHFLTSARLCAG | inactive
88 | RFEFDQVFMF | 1.32 ± 0.13
89 | DRIVACKLKTGYTQGMVPLL | inactive
90 | AGRNMSLCNLHLILLCTSKC | inactive
91 | FRRFSGTGFIMSEIAYFFSI | inactive
92 | FVIVGSGSQSPEYIWNVKYE | -0.049 ± 0.32

Row | Substance | amyloid nucleation score
93 | TCSSINTLLKYMFLSISLFR | inactive
94 | PSKFVHKSDLCDNGYLPCTR | inactive
95 | IVSWKVRSVSLKLLLSCAPD | inactive
96 | NRDNAEQYYRPTVTVCSEGW | inactive
97 | FWFSTELVDDGAGQT | inactive
98 | PCDQD | inactive
99 | GLRNHCPSFLLWASTARGTL | -0.976 ± 2.5
100 | AVVIGDDEVVSDYCLLL | 0.377 ± 0.27
101 | FMPTVQVRLQC | inactive
102 | TLLFDPMLNA | inactive
103 | FNSNFHHSVNSVNGITFSEA | inactive
104 | SYLRQDDVEMAVIWTGHMSV | inactive
105 | HWNCGVTNSGEFFALAVGFI | inactive
106 | LHALFVLSMGQA | inactive
107 | SMACCGLSIAATNAPKVPKV | 0.498 ± 0.34
108 | VGTPCSYSWLAAPV | inactive
109 | WVTYWASRVFE | inactive
110 | DFYGYSY | inactive
111 | SNFAMGVRLY | inactive
112 | SRSSCRVIPT | inactive
113 | AIYLSFRGNA | 1.65 ± 0.071
114 | WIDRQLKRGL | inactive
115 | YTIYIIIRW | 1.03 ± 0.084

Row | Substance | amyloid nucleation score
116 | CNTPR | inactive
117 | MITLDCLNNNI | inactive
118 | HPRTLSRLNINFRANRYGWS | -0.859 ± 1.7
119 | VFMKNLNKIDILTSGLDHIY | inactive
120 | SNVNTAWKRFTRI | inactive
121 | VVRFLDQKMYVVGLLSGS | inactive
122 | LMNTYL | 1.71 ± 0.099
123 | CYGNSMIGVFRICFHSLVYV | inactive
124 | YEKPCEG | inactive
125 | AVQHIVEFILICQMFTYTHH | inactive
126 | SSVTCLLSSLRCIPRGVVFM | inactive
127 | RSDGRCEYKSWCNVQLKVE | inactive
128 | FHPFFIGVGSFLGSLHEFQS | inactive
129 | ISAGFAGNN | inactive
130 | VLGPGIIRTEQVLTVVRTMA | inactive
131 | QGLSRIRTKQGLAWIGLYTV | inactive
132 | SICCMWMWMACAIKFQNTRR | -0.519 ± 1.9
133 | PLTFRTMVFKALVEAWRKFN | inactive
134 | GIRLIECS | inactive
135 | IFINRKE | -0.431 ± 0.76
136 | DGKQVRGPGVAQSGANNGLE | inactive
137 | LFQLHMVLSF | inactive
138 | LYGIFHRYTNFCSSVLCQVF | 1.66 ± 0.12

Row | Substance | amyloid nucleation score
139 | VVCFFYNVF | 2.36 ± 0.055
140 | QLLCHYNSSSEFLTQKHRYW | inactive
141 | YAATRW | inactive
142 | GLRFPMRWDCGVRVNYRKSR | inactive
143 | ERSHVCCGNDRYTLLWRVYS | inactive
144 | MAPPNIWFQCQ | inactive
145 | TVRDELSSVFL | inactive
146 | AGLSQNRSRIRSY | -0.2 ± 0.81
147 | AINDMRPVKSRGGVVELYML | inactive
148 | TVIFWWLKGNRPVSMIDSDI | inactive
149 | LAFADRITGYGWSGTVRMMW | inactive
150 | CRTHSDVVVSTHFMNAWLSI | inactive
151 | PNDVRNAFFCPPPTKKPTVA | inactive
152 | RLWICVSQILVILVDALILG | inactive
153 | RANWLGLVTVGS | inactive
154 | KYKSVCVKFNEDLTG | inactive
155 | RCDIFTTTFEFREVHCLWVG | inactive
156 | CHQKMSVA | inactive
157 | TAVLH | inactive
158 | LFGQVVGVDFFNWWCFEMHK | inactive
159 | NAQWLYCINSD | inactive
160 | DYVCYLILVLEASRRNCRSS | inactive
161 | EICSSNKRQRLKRVMEVIFC | inactive
